Laboratory results reported in patent publication US20260241018A1 (BIOCYTOGEN PHARMACEUTICALS BEIJING, published 2026).

T1: h5T4-His protein (human, UniProt Q13641 32-355, limits assumed)
T1 construct: also called His-tagged human 5T4 protein; not shown: His tag
T1 sequence (looked up): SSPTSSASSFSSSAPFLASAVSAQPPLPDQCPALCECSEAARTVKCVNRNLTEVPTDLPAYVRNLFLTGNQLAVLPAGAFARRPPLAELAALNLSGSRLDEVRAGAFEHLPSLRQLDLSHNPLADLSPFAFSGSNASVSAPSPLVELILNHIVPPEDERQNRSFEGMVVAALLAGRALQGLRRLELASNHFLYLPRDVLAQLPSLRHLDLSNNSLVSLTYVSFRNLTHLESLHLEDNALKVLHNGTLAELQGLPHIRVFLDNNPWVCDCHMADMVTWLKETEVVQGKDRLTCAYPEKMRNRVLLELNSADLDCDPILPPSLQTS

T2: human 5T4 expressed on CHO-S cells (CHO-h5T4 cells) (human, UniProt Q13641 32-355)
T2 sequence: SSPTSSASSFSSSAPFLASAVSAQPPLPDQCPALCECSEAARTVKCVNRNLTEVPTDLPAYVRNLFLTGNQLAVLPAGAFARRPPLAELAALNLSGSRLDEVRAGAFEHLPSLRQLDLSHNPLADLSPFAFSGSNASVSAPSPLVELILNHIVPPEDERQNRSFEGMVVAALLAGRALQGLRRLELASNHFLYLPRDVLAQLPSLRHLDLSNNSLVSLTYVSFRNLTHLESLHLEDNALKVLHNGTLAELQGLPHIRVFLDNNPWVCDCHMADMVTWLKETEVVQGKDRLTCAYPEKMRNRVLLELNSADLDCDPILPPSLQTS

T3: His-tagged 5T4 protein of human (h5T4, ACRO Biosystems Inc., Cat #: TPG-H52E5) (human, UniProt Q13641 32-355)
T3 construct: Bought protein; not shown: His tag
T3 sequence (looked up): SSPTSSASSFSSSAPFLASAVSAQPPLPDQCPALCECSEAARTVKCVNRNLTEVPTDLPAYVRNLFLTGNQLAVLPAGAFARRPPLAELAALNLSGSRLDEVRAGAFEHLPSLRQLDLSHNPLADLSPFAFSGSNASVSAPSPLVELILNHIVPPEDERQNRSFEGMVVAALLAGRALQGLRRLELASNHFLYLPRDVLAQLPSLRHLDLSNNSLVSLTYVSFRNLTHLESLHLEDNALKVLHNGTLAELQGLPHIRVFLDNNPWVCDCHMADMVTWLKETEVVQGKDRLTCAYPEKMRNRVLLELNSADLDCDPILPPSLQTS

T4: His-tagged 5T4 protein of mouse (m5T4, ACRO Biosystems Inc., Cat #: TPG-M52H3) (mouse, UniProt Q9Z0L0 32-361, limits assumed)
T4 construct: Bought protein; not shown: His tag
T4 sequence (looked up): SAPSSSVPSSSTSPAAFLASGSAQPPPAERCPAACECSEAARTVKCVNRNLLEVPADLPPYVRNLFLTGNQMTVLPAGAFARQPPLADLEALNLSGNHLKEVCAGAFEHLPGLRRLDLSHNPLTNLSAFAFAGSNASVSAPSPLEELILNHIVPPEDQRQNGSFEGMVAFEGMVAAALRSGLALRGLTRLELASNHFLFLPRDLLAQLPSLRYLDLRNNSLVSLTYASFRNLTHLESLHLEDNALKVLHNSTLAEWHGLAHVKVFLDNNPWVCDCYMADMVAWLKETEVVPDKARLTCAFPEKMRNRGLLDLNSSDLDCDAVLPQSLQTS

T5: mouse 5T4 expressed on CHO-S cells (CHO-m5T4 cells) (mouse, UniProt Q9Z0L0 32-361)
T5 sequence: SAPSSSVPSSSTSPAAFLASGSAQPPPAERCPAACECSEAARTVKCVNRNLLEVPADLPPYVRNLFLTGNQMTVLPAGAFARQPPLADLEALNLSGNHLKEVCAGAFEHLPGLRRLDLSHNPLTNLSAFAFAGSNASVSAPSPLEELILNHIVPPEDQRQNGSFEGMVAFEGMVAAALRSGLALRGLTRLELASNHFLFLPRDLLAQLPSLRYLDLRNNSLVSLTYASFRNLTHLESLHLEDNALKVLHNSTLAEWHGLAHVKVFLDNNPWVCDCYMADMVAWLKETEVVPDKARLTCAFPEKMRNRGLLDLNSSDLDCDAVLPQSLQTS

T6: dog 5T4 expressed on CHO-S cells (CHO-d5T4 cells) (dog)
T6 chain: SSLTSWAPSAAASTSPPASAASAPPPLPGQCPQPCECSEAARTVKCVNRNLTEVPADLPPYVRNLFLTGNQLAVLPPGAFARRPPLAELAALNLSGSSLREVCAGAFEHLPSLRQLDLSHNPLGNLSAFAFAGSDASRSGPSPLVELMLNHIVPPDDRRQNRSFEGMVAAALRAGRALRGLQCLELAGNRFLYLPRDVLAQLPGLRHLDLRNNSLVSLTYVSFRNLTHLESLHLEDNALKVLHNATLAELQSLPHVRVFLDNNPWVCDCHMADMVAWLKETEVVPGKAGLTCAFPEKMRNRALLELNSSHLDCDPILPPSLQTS

T7: monkey (Macaca fascicularis) 5T4 expressed on CHO-S cells (CHO-fas5T4 cells) (monkey (Macaca fascicularis), UniProt Q4R8Y9 35-355)
T7 construct: also called monkey 5T4
T7 sequence: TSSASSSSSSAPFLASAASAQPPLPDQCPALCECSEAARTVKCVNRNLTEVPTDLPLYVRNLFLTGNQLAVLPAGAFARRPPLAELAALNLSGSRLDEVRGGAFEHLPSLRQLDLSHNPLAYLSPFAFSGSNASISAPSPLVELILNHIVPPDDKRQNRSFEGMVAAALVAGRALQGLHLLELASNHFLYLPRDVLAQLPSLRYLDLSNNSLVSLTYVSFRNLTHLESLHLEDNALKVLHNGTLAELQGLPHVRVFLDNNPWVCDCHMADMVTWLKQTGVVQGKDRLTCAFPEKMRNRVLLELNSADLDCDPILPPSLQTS

T8: His-tagged 5T4 protein of monkey (fas5T4, ACRO Biosystems Inc., Cat #: TPG-C52H3) (monkey, UniProt Q4R8Y9 35-355)
T8 construct: Bought protein
T8 sequence: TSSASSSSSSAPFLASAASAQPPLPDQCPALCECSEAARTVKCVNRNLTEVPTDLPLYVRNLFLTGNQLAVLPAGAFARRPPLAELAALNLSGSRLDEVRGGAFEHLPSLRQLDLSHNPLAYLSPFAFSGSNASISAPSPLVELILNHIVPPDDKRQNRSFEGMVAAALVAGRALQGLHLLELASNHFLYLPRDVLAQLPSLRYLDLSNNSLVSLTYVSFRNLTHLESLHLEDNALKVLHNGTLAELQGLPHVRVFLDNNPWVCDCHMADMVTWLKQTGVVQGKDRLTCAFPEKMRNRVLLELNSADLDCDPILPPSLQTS


Legend:
[1] = target: T1, h5T4-His protein; experiment: epitope binding assay, h5T4-His captured; binder = analyte 2; competitor (analyte 1): 32E3
Protocol: (§1) Epitope binding assays were performed using ForteBio Octet system to determine whether two anti-5T4 antibodies target the same or overlapping epitopes. 1×HBS-EP+buffer (10 mM 4-(2-hydroxyethyl)-1-piperazineethanesulfonic acid (HEPES), 150 mM NaCl, 3 mM ethylenediaminetetraacetic acid (EDTA) and 0.05% P20, pH7.4) diluted from HBS-EP+buffer (10×) was used as the running buffer throughout the experiment. About 50 RU of h5T4-His protein was captured at a flow rate of 10 μL/min, and 200 nM of the tested antibody was injected at a flow rate of 30 μL/min to bind the ligand. Another comparison antibody was injected under the same conditions to determine whether the binding of different antibodies interfered with each other. The binding time was 180 s for each antibody.
(§2) The binding value of each antibody was obtained using Data Analysis HT 12.0. To quantify the interference of one antibody binding to another, a binding ratio was calculated to compare each pair of antibodies. The binding ratio is defined as the binding value of the second antibody (analyte 2), divided by the binding value of the first antibody (analyte 1). […] In general, antibody pairs that interfere with each other have the same or overlapping epitopes.

[2] = target: T1, h5T4-His protein; experiment: epitope binding assay, h5T4-His captured; binder = analyte 2; competitor (analyte 1): 32G1
Protocol: as §1, §2

[3] = target: T2, human 5T4 expressed on CHO-S cells …; experiment: flow cytometry, CHO-h5T4 cells
Protocol: (§3) CHO-h5T4 cells, CHO-m5T4 cells, CHO-fas5T4 cells or CHO-d5T4 cells were transferred to a 96-well plate at a density of 2×10⁵ cells/well respectively. The anti-5T4 antibodies were added to the 96-well plate, and incubated at 4° C. for 30 min. Then, the cells were incubated with the secondary antibody anti-hlgG-Fc-Alex Flour 647 (RL1-H) (Jackson ImmunoResearch Laboratories, Inc., Cat #: 109-606-170) at 4° C. in the dark for 15 minutes before flow cytometry analysis.

[4] = target: T1, h5T4-His protein; experiment: epitope binding assay, h5T4-His captured; binder = analyte 2; competitor (analyte 1): 35C6
Protocol: as §1, §2

[5] = target: T1, h5T4-His protein; experiment: epitope binding assay, h5T4-His captured; binder = analyte 2; competitor (analyte 1): 32G8
Protocol: as §1, §2

[6] = target: T3, His-tagged 5T4 protein of human (h5T4, …); experiment: SPR (Biacore 8K), antibody captured on Protein A chip, His-tagged 5T4 as analyte
Protocol: (§4) Purified anti-5T4 antibodies were diluted to 2 μg/mL and then injected into the Biacore™ 8K biosensor at 10 μL/min for about 50 seconds to achieve a desired protein density (e.g., about 50 response units (RU)). His-tagged 5T4 protein at a concentration of 200 nM was then injected at 30 μL/min for 180 seconds. Dissociation was monitored for 400 seconds. The chip was regenerated after the last injection of each titration with Glycine (pH 2.0), 30 μL/min for 30 seconds. For ISO control, an antibody targeting an irrelevant target protein was used.
(§5) As a person of ordinary skill in the art would understand, the same method with appropriate adjustments for parameters (e.g., antibody concentration) was performed for each tested antibody.

[7] = target: T4, His-tagged 5T4 protein of mouse (m5T4, …); experiment: as above
Protocol: as §4, §5

[8] = target: T5, mouse 5T4 expressed on CHO-S cells …; experiment: flow cytometry, CHO-m5T4 cells
Protocol: as §3

[9] = target: T1, h5T4-His protein; experiment: epitope binding assay, h5T4-His captured; binder = analyte 2; competitor (analyte 1): 31G4
Protocol: as §1, §2

[10] = target: T1, h5T4-His protein; experiment: epitope binding assay, h5T4-His captured; binder = analyte 2; competitor (analyte 1): 35B12
Protocol: as §1, §2

[11] = target: T6, dog 5T4 expressed on CHO-S cells …; experiment: flow cytometry, CHO-d5T4 cells
Protocol: as §3

[12] = target: T7, monkey (Macaca fascicularis) 5T4 …; experiment: flow cytometry, CHO-fas5T4 cells
Protocol: as §3

[13] = target: T8, His-tagged 5T4 protein of monkey …; experiment: SPR (Biacore 8K), antibody captured on Protein A chip, His-tagged 5T4 as analyte
Protocol: as §4, §5

Binder | binding ratio [1] | binding ratio [2] | Percentage of Positive Cells [3] [%] | binding ratio [4] | binding ratio [5] | Kd [6] [nM] | koff [6] [s⁻¹] | kon [6] [M⁻¹ s⁻¹] | Percentage of Positive Cells [8] [%] | binding ratio [9] | binding ratio [10] | Percentage of Positive Cells [11] [%] | Percentage of Positive Cells [12] [%] | Kd [13] [nM] | koff [13] [s⁻¹] | kon [13] [M⁻¹ s⁻¹] | further results
35C6 (antibody, V domains shown, also called anti-5T4 antibody 35C6) VH: QVQLVQSGGGLVQPGGSLRLSCAASGFTFSRNAMSWVRQAPGKGLEWVSAISGSGGSTHDADSVKGRFTISRDNSKNTLYLEMNSLRAEDTAVYYCAKDGYSSLWDYHYYGMDVWGQGTTVTVSS VL: not shown | 0.93 | 0.96 | 67.3 | 0.02 | 0.98 | 19.2 | 0.00315 | 164000 | 63.3 | 0.81 | 0.03 | 71.1 | 55.7 | – | – | – | Kd [7]: 1.31 nM; koff [7]: 0.000407 s⁻¹; kon [7]: 310000 M⁻¹ s⁻¹
32G8 (antibody, V domains shown, also called anti-5T4 antibody 32G8) VH: QVQLQESGPGLLQPSETLSLTCFVSGASINSSGHYWGWIRQPPGKGLEWIGSIYFSGNTNYNPSLKSRVTIAVDTSKNQFSLKLSSVTAADTAVYYCVRRNGRYCSTISCYDDYWGQGTLVTVSS VL: not shown | 0.04 | 1.01 | 61.5 | 1.01 | 0.11 | 42.7 | 0.00529 | 124000 | 0.7 | 0.85 | 0.96 | 62.8 | 52.6 | 146 | 0.0143 | 98000 | binding result [7]: no binding (tested: 200 nM); binding result [8]: no binding
32E3 (antibody, V domains shown, also called anti-5T4 antibody 32E3) VH: QVQLVQSGGGLVQPGGSLRLSCVVSGFTVSSDYMSWVRQAPGKGLEWVSIIYSGGSTFYADSVKGRFTISRDNSKNTLFLQMNSLRAEDTAVYYCARDRDCHGWGSYYNRWFDPWGQGTLVTVSS VL: not shown | -0.01 | 0.83 | 65.8 | 0.96 | -0.06 | 147 | 0.00661 | 44900 | 52.2 | 0.8 | 0.97 | 53.7 | 51.5 | 116 | 0.00297 | 25600 | –
